Patent US8399206B2, “Methods for diagnosis, prognosis and methods of treatment” (Nodality, Inc., priority 2008, dated 2013)

System: AML BMMC leukemic blasts
Experiment: SCNP modulated signaling assay, AML study No. 2 (BMMC, CR vs NR, clinical sub-groups)
Format: cell-based, human
Protocol: Two independent sets of cryopreserved samples were analyzed sequentially. The first set consisted of 35 peripheral blood mononuclear cell (PBMC) samples derived from AML patients. The second set consisted of 134 cryopreserved bone marrow mononuclear cell (BMMC) samples derived from AML patients. These samples were the same samples used in the previous examples. Sample inclusion criteria required collection prior to initiation of induction chemotherapy, AML classification by the French-American-British (FAB) criteria as M0 through M7 (excluding M3) and availability of clinical annotations.
In the first study, induction chemotherapy consisted of at least one cycle of standard cytarabine-based induction therapy (i.e. daunorubicin 60 mg/m^2×3 days, cytarabine 100-200 mg/m^2 continuous infusion×7 days); responses were measured after one cycle of induction therapy. In the second study, cytarabine (200 mg/m^2 to 3 g/m^2) was used in combination with an anthracycline (daunorubicin or idarubicin) or an additional anti-metabolite (e.g. fludarabine or troxacitabine), and sometimes, an experimental agent (Table 16). […] Standard clinical and laboratory criteria were used for defining complete response (CR) in both studies. […] Classified as “CRp,” these samples were included in the CR group for all primary analysis. The univariate analyses were also repeated with the CRp patients classified into the NR sample group for sensitivity analysis.
Cyropreserved samples were thawed at […], washed and centrifuged in PBS, 10% FBS and 2 mM EDTA. The cells were re-suspended, filtered to remove debris and washed in RPMI cell culture media, 1% FBS, then stained with Live/Dead Fixable Aqua Viability Dye to distinguish non-viable cells. The cells were then re-suspended in RPMI, 1% FBS, aliquoted to 100,000 cells/condition and rested for 1-2 hours at 37° C. prior to SCNP assays. Each condition included two to five phenotypic markers for cell population gating (eg, CD45, CD33), up to three intracellular stains or up to three additional surface markers or control antibodies for an eight-color flow cytometry assay.
Functional assays were performed as previously described. Cells were incubated with modulators (Table 18), at 37° C. for 3-15 minutes, fixed with 1.6% paraformaldehyde (final concentration) for 10 minutes at 37° C., pelleted and permeabilized with 100% ice-cold methanol and stored at −80° C.
Data was acquired using FACS DIVA software on both LSR II and CANTO II Flow Cytometers (BD). For all analyses, dead cells and debris were excluded by forward scatter (FSC), side scatter (SSC), and Amine Aqua Viability Dye measurement. Leukemic cells were identified as cells that lacked the characteristics of mature lymphocytes (CD45^++, CD33^−) and that fit the CD45 and CD33 versus right-angle light-scatter characteristics consistent with myeloid leukemia cells.
The median fluorescence intensity (MFI) was computed for each node from the fluorescence intensity levels for the cells in the myeloid population. The MFI values were then used to compute a variety of metrics by comparing them to baseline or background values, including the unmodulated condition, cellular autofluorescence and antibody isotype controls. The following metrics were computed: • 1. Basal MFI (“Basal”)=log2(MFIUnmodulated Stained)−log2(MFIGated Unstained (Autofluoresence)), designed to measure the basal levels of a certain protein under unmodulated conditions. • 2.

[1] = Study No. 2, all patients, CR samples
[2] = Study No. 2, all patients, NR samples

B1: IL-27: interleukin-27 (protein, UniProt Q8NEV9 29-243; Q14213 21-229, looked up)
Interleukin-27 subunit alpha: FPRPPGRPQLSLQELRREFTVSLHLARKLLSEVRGQAHRFAESHLPGVNLYLLPLGEQLPDVSLTFQAWRRLSDPERLCFISTTLQPFHALLGGLGTQGRWTNMERMQLWAMRLDLRDLQRHLRFQVLAAGFNLPEEEEEEEEEEEEERKGLLPGALGSALQGPAQVSWPQLLSTYRLLHSLELVLSRAVRELLLLSKAGHSVWPLGFPTLSPQP
Interleukin-27 subunit beta: RKGPPAALTLPRVQCRASRYPIAVDCSWTLPPAPNSTSPVSFIATYRLGMAARGHSWPCLQQTPTSTSCTITDVQLFSMAPYVLNVTAVHPWGSSSSFVPFITEHIIKPDPPEGVRLSPLAERQLQVQWEPPGSWPFPEIFSLKYWIRYKRQGAARFHRVGPIEATSFILRAVRPRARYYVQVAAQDLTDYGELSDWSLPATATMSLGK
Mean Value of CRs, p-Stat1 Total Phospho [1]: 1.66 | Mean Value of CRs, p-Stat3 Total Phospho [1]: 1.88 | Mean Value of CRs, p-Stat3 Fold (Study No. 2, all patients, CR samples, negative = down regulation): 0.22 | Mean Value of NRs, p-Stat1 Total Phospho [2]: 2.63 | Mean Value of NRs, p-Stat3 Fold [2]: 0.58 | Mean Value of NRs, p-Stat3 Total Phospho [2]: 2.43 | IL-27 response, NR vs CR (patients younger than 60 years old): NRs have higher IL-27 response than CRs

B2: FLT-3L: fms-like tyrosine kinase receptor-3 ligand (protein, UniProt P49771 27-235, looked up)
Fms-related tyrosine kinase 3 …: TQDCSFQHSPISSDFAVKIRELSDYLLQDYPVTVASNLQDEELCGGLWRLVLAQRWMERLKTVAGSKMQGLLERVNTEIHFVTKCAFQPPPSCLRFVQTNISRLLQETSEQLVALKPWITRQNFSRCLELQCQPDSSTLPPPWSPRPLEATAPTAPQPPLLLLLLLPVGLLLLAAAWCLHWQRTRRRTPRPGEQVPPVPSPQDLLLVEH
Flt3L induced p-Akt and p-Erk (patients over age 60 or with secondary AML lacking response to induction chemotherapy): increased Flt3L induced p-Akt and p-Erk | H2O2 and FLT3L responses, NR vs CR (patients younger than 60 years old (so in the source)): NRs have higher H2O2 and FLT3L responses than CRs
